Test results published in patent US20240279278A1, “NMU RECEPTOR 2 AGONISTS” (Boehringer Ingelheim International GmbH, priority 2023, published 2024).

B1: C18A-gGlu3-Sar12-AEPipAc-Tyr-Phe-NMeLeu-Nle-Orn-Pro-Arg-Gly-NH2 (peptide)
peptide: EEEXXXXXXXXXXXXXYFLXXPRG
HELM: PEPTIDE1{[CCCCCCCCCCCCCCCCCC(=O)[*:2]].[gGlu].[gGlu].[gGlu].[Sar].[Sar].[Sar].[Sar].[Sar].[Sar].[Sar].[Sar].[Sar].[Sar].[Sar].[Sar].[O=C(CN1CCN(CCN[*:1])CC1)[*:2]].Y.F.[meL].[Nle].[Orn].P.R.G.[am]}$$$$V2.0
SMILES: CCCCCCCCCCCCCCCCCC(=O)N[C@@H](CCC(=O)N[C@@H](CCC(=O)N[C@@H](CCC(=O)N(C)CC(=O)N(C)CC(=O)N(C)CC(=O)N(C)CC(=O)N(C)CC(=O)N(C)CC(=O)N(C)CC(=O)N(C)CC(=O)N(C)CC(=O)N(C)CC(=O)N(C)CC(=O)N(C)CC(=O)NCCN1CCN(CC(=O)N[C@@H](Cc2ccc(O)cc2)C(=O)N[C@@H](Cc2ccccc2)C(=O)N(C)[C@@H](CC(C)C)C(=O)N[C@@H](CCCC)C(=O)N[C@@H](CCCN)C(=O)N2CCC[C@H]2C(=O)N[C@@H](CCCNC(=N)N)C(=O)NCC(N)=O)CC1)C(=O)O)C(=O)O)C(=O)O
B2: C18DA-gGlu3-Sar12-AEPipAc-Tyr-Phe-Leu-Nle-Orn-Pro-Arg-Gly-NH2 (peptide)
peptide: EEEXXXXXXXXXXXXXYFLXXPRG
HELM: PEPTIDE1{[O=C(O)CCCCCCCCCCCCCCCCC(=O)[*:2]].[gGlu].[gGlu].[gGlu].[Sar].[Sar].[Sar].[Sar].[Sar].[Sar].[Sar].[Sar].[Sar].[Sar].[Sar].[Sar].[O=C(CN1CCN(CCN[*:1])CC1)[*:2]].Y.F.L.[Nle].[Orn].P.R.G.[am]}$$$$V2.0
SMILES: CCCC[C@H](NC(=O)[C@H](CC(C)C)NC(=O)[C@H](Cc1ccccc1)NC(=O)[C@H](Cc1ccc(O)cc1)NC(=O)CN1CCN(CCNC(=O)CN(C)C(=O)CN(C)C(=O)CN(C)C(=O)CN(C)C(=O)CN(C)C(=O)CN(C)C(=O)CN(C)C(=O)CN(C)C(=O)CN(C)C(=O)CN(C)C(=O)CN(C)C(=O)CN(C)C(=O)CC[C@H](NC(=O)CC[C@H](NC(=O)CC[C@H](NC(=O)CCCCCCCCCCCCCCCCC(=O)O)C(=O)O)C(=O)O)C(=O)O)CC1)C(=O)N[C@@H](CCCN)C(=O)N1CCC[C@H]1C(=O)N[C@@H](CCCNC(=N)N)C(=O)NCC(N)=O
B3: C18DA-gGlu3-Sar15-AEPipAc-Tyr-Phe-Leu-Nle-Arg-Pro-Arg-Gly-NH2 (peptide)
peptide: EEEXXXXXXXXXXXXXXXXYFLXRPRG
HELM: PEPTIDE1{[O=C(O)CCCCCCCCCCCCCCCCC(=O)[*:2]].[gGlu].[gGlu].[gGlu].[Sar].[Sar].[Sar].[Sar].[Sar].[Sar].[Sar].[Sar].[Sar].[Sar].[Sar].[Sar].[Sar].[Sar].[Sar].[O=C(CN1CCN(CCN[*:1])CC1)[*:2]].Y.F.L.[Nle].R.P.R.G.[am]}$$$$V2.0
SMILES: CCCC[C@H](NC(=O)[C@H](CC(C)C)NC(=O)[C@H](Cc1ccccc1)NC(=O)[C@H](Cc1ccc(O)cc1)NC(=O)CN1CCN(CCNC(=O)CN(C)C(=O)CN(C)C(=O)CN(C)C(=O)CN(C)C(=O)CN(C)C(=O)CN(C)C(=O)CN(C)C(=O)CN(C)C(=O)CN(C)C(=O)CN(C)C(=O)CN(C)C(=O)CN(C)C(=O)CN(C)C(=O)CN(C)C(=O)CN(C)C(=O)CC[C@H](NC(=O)CC[C@H](NC(=O)CC[C@H](NC(=O)CCCCCCCCCCCCCCCCC(=O)O)C(=O)O)C(=O)O)C(=O)O)CC1)C(=O)N[C@@H](CCCNC(=N)N)C(=O)N1CCC[C@H]1C(=O)N[C@@H](CCCNC(=N)N)C(=O)NCC(N)=O
B4: C20DA-gGlu3-Sar15-AEPipAc-Tyr-Phe-Leu-Nle-Orn-Pro-Arg-Gly-NH2 (peptide)
peptide: EEEXXXXXXXXXXXXXXXXYFLXXPRG
HELM: PEPTIDE1{[O=C(O)CCCCCCCCCCCCCCCCCCC(=O)[*:2]].[gGlu].[gGlu].[gGlu].[Sar].[Sar].[Sar].[Sar].[Sar].[Sar].[Sar].[Sar].[Sar].[Sar].[Sar].[Sar].[Sar].[Sar].[Sar].[O=C(CN1CCN(CCN[*:1])CC1)[*:2]].Y.F.L.[Nle].[Orn].P.R.G.[am]}$$$$V2.0
SMILES: CCCC[C@H](NC(=O)[C@H](CC(C)C)NC(=O)[C@H](Cc1ccccc1)NC(=O)[C@H](Cc1ccc(O)cc1)NC(=O)CN1CCN(CCNC(=O)CN(C)C(=O)CN(C)C(=O)CN(C)C(=O)CN(C)C(=O)CN(C)C(=O)CN(C)C(=O)CN(C)C(=O)CN(C)C(=O)CN(C)C(=O)CN(C)C(=O)CN(C)C(=O)CN(C)C(=O)CN(C)C(=O)CN(C)C(=O)CN(C)C(=O)CC[C@H](NC(=O)CC[C@H](NC(=O)CC[C@H](NC(=O)CCCCCCCCCCCCCCCCCCC(=O)O)C(=O)O)C(=O)O)C(=O)O)CC1)C(=O)N[C@@H](CCCN)C(=O)N1CCC[C@H]1C(=O)N[C@@H](CCCNC(=N)N)C(=O)NCC(N)=O
B5: C20A-gGlu3-Sar15-AEPipAc-Tyr-Phe-NMeLeu-Nle-Orn-Pro-Arg-Gly-NH2 (peptide)
peptide: EEEXXXXXXXXXXXXXXXXYFLXXPRG
HELM: PEPTIDE1{[CCCCCCCCCCCCCCCCCCCC(=O)[*:2]].[gGlu].[gGlu].[gGlu].[Sar].[Sar].[Sar].[Sar].[Sar].[Sar].[Sar].[Sar].[Sar].[Sar].[Sar].[Sar].[Sar].[Sar].[Sar].[O=C(CN1CCN(CCN[*:1])CC1)[*:2]].Y.F.[meL].[Nle].[Orn].P.R.G.[am]}$$$$V2.0
SMILES: CCCCCCCCCCCCCCCCCCCC(=O)N[C@@H](CCC(=O)N[C@@H](CCC(=O)N[C@@H](CCC(=O)N(C)CC(=O)N(C)CC(=O)N(C)CC(=O)N(C)CC(=O)N(C)CC(=O)N(C)CC(=O)N(C)CC(=O)N(C)CC(=O)N(C)CC(=O)N(C)CC(=O)N(C)CC(=O)N(C)CC(=O)N(C)CC(=O)N(C)CC(=O)N(C)CC(=O)NCCN1CCN(CC(=O)N[C@@H](Cc2ccc(O)cc2)C(=O)N[C@@H](Cc2ccccc2)C(=O)N(C)[C@@H](CC(C)C)C(=O)N[C@@H](CCCC)C(=O)N[C@@H](CCCN)C(=O)N2CCC[C@H]2C(=O)N[C@@H](CCCNC(=N)N)C(=O)NCC(N)=O)CC1)C(=O)O)C(=O)O)C(=O)O
B6: C18A-gGlu3-Sar15-AEPipAc-Tyr-Phe-NMeLeu-Nle-Arg-Pro-Arg-Gly-NH2 (peptide)
peptide: EEEXXXXXXXXXXXXXXXXYFLXRPRG
HELM: PEPTIDE1{[CCCCCCCCCCCCCCCCCC(=O)[*:2]].[gGlu].[gGlu].[gGlu].[Sar].[Sar].[Sar].[Sar].[Sar].[Sar].[Sar].[Sar].[Sar].[Sar].[Sar].[Sar].[Sar].[Sar].[Sar].[O=C(CN1CCN(CCN[*:1])CC1)[*:2]].Y.F.[meL].[Nle].R.P.R.G.[am]}$$$$V2.0
SMILES: CCCCCCCCCCCCCCCCCC(=O)N[C@@H](CCC(=O)N[C@@H](CCC(=O)N[C@@H](CCC(=O)N(C)CC(=O)N(C)CC(=O)N(C)CC(=O)N(C)CC(=O)N(C)CC(=O)N(C)CC(=O)N(C)CC(=O)N(C)CC(=O)N(C)CC(=O)N(C)CC(=O)N(C)CC(=O)N(C)CC(=O)N(C)CC(=O)N(C)CC(=O)N(C)CC(=O)NCCN1CCN(CC(=O)N[C@@H](Cc2ccc(O)cc2)C(=O)N[C@@H](Cc2ccccc2)C(=O)N(C)[C@@H](CC(C)C)C(=O)N[C@@H](CCCC)C(=O)N[C@@H](CCCNC(=N)N)C(=O)N2CCC[C@H]2C(=O)N[C@@H](CCCNC(=N)N)C(=O)NCC(N)=O)CC1)C(=O)O)C(=O)O)C(=O)O

Target: T1, human neuromedin U receptor 1 (human, UniProt Q9HB89 24-426)
T1 sequence (looked up): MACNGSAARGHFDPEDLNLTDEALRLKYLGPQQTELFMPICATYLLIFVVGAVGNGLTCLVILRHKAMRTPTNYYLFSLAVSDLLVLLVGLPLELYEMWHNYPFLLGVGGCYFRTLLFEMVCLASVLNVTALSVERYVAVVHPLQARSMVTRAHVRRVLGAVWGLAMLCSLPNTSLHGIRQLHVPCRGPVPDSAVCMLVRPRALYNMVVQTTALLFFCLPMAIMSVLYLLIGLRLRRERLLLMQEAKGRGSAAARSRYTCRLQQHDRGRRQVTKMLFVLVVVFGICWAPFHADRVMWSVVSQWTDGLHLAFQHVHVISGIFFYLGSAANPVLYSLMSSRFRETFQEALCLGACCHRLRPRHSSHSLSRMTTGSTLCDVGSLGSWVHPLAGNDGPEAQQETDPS
Experiment: cell-based or functional assay
Details: not given

Row | Molecule | EC50 (activity as measured in Example 3) [nM]
1 | B1 | 0.37
2 | B2 | 68
3 | B3 | 21
4 | B4 | 75
5 | B5 | 0.33
6 | B6 | 0.2

Target: human neuromedin U receptor 2 (human, UniProt Q9GZQ4 1-415)
Sequence (Q9GZQ4 whole entry): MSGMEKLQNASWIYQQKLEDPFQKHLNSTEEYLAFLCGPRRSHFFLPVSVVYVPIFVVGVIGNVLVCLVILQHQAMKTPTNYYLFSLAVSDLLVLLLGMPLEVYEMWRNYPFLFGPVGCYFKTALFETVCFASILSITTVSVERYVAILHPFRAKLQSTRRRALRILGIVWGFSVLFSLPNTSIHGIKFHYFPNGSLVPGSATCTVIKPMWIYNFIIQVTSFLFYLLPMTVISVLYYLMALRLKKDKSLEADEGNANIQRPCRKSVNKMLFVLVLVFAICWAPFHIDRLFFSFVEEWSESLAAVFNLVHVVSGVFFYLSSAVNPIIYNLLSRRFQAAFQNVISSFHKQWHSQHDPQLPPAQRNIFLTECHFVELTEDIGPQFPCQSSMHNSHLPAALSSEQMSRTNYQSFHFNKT
Experiment: cell-based or functional assay
Details: not given

Row | Molecule | EC50 (activity as measured in Example 3) [nM]
7 | B1 | 0.047
8 | B2 | 2.1
9 | B3 | 1.7
10 | B4 | 3
11 | B5 | 0.054
12 | B6 | 0.046

Test system: not given
Experiment: not given
Details: cited from earlier work

Row | Molecule | half-life after subcutaneous injection
13 | Neuromedin U [native NMU] | less than 5 min
